According to patent publication US10822423 (TRUSTEES OF DARTMOUTH COLLEGE, dated 2020):

T1: purified recombinant human CD40L (human, UniProt P29965 113-261, limits assumed)
T1 construct: also called hCD40L; CD154
T1 sequence (looked up): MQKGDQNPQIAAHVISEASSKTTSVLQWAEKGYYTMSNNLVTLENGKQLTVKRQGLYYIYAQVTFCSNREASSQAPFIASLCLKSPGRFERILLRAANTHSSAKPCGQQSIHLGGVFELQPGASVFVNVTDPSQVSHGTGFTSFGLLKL

B1: Antibody A (anti-human CD40L IgG1 antibody with V215A and E269R mutations in the human IgG1 constant region) (antibody, V domains shown)
VH: EVQLQESGPGLVKPSETLSLTCTVSGDSITNGFWIWIRKPPGNKLEYMGYISYSGSTYYNPSLKSRISISRDTSKNQFSLKLSSVTAADTGVYYCACRSYGRTPYYFDFWGQGTTLTVSS
VL: DIVMTQSPSFLSASVGDRVTITCKASQNVITAVAWYQQKPGKSPKLLIYSASNRYTGVPDRFSGSGSGTDFTLTISSLQPEDFADYFCQQYNSYPYTFGGGTKLEIK
notes: Human IgG1 with V215A and E269R in the constant region, expressed in HEK-293 Freestyle cells; also called anti-hCD40L variant
B2: Antibody B (anti-human CD40L IgG1 antibody with V215A, E269R and K322A mutations in the human IgG1 constant region) (antibody, V domains shown)
VH: B1 VH
VL: B1 VL
notes: Human IgG1 with V215A, E269R and K322A in the constant region, expressed in HEK-293 Freestyle cells; also called anti-hCD40L variant

Molecular target: T1, purified recombinant human CD40L
Assay: ELISA: recombinant human CD40L coated, detected with mouse anti-human IgG then HRP goat anti-mouse IgG
Method: Both antibodies were purified by conventional methods and the binding activity of both recombinantly expressed antibodies to hCD40L was assayed. To measure anti-hCD40L variants binding to hCD40L, purified recombinant human CD40L was bound to a 96-well ELISA-grade plate. After blocking, anti-hCD40L variants were added followed by mouse anti-human IgG then horseradish peroxidase-labeled goat anti-mouse IgG. TMB color development was then quantitated at 450 nm by an ELISA reader.

Binder	binding result
B1	binds
B2	binds
